From patent US20260193293A1, “PEPTIDES CAPABLE OF INHIBITING PROTEIN-PROTEIN INTERACTIONS AT GABAB1A SUBUNIT AND USES THEREOF” (UNIVERSITY OF COPENHAGEN, priority 2022, published 2026)
Each block holds one binder with its values, some of them ahead of it. Non-standard residues stand in square brackets, D forms with d. Sar = CNCC(=O)O

Molecular target: Sushi domains (SD1/2) protein of GABAB1a (GB1a)
Assay: FP competition vs TAMRA AJAP-1probe

Sushi domains (SD1/2) protein of GABAB1a (GB1a), sequence (Q9Z0U4 29-158): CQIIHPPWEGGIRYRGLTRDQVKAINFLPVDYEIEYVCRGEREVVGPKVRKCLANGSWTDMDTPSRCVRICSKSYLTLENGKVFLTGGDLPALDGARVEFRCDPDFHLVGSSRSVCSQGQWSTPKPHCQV

Binder: Ac-DAIVWGPTVSRED-NH2 [… (SEQ ID NO: 342)]
Ki: 208 nM

Binder: Ac-PWAIVWGPTDSRED-NH2
Ki: 417 nM

Binder: Ac-PSAIVWGPTVSRED-NH2
Ki: 906 nM

Binder: Ac-FIVWGPTVSRED-NH2 (not fully specified; printed as FIVWGPTVSRED*)
Ki: 503 nM

Binder: Ac-PWAIVWGPTVDRED-NH2
Ki: 379 nM

B2: …(N-Me-G)ADTD (peptide)
peptide: Ac-EDDSWVWWG[Sar]ADTD-NH2
SMILES: CC(=O)N[C@@H](CCC(=O)O)C(=O)N[C@@H](CC(=O)O)C(=O)N[C@@H](CC(=O)O)C(=O)N[C@@H](CO)C(=O)N[C@@H](Cc1c[nH]c2ccccc12)C(=O)N[C@H](C(=O)N[C@@H](Cc1c[nH]c2ccccc12)C(=O)N[C@@H](Cc1c[nH]c2ccccc12)C(=O)NCC(=O)N(C)CC(=O)N[C@@H](C)C(=O)N[C@@H](CC(=O)O)C(=O)N[C@H](C(=O)N[C@@H](CC(=O)O)C(N)=O)[C@@H](C)O)C(C)C
Ki: 36 nM

Binder: Ac-RRRRRRRREDDDWIDWYDSDDD-NH2 [R8-16]
Ki: 107 nM

Binder: Ac-FIVWGPTVSRED-NH2
Ki: 367 nM

B3: …(N-Me-G)ADTD (peptide)
peptide: Ac-EDDSDVWWYG[Sar]ADTD-NH2
SMILES: CC(=O)N[C@@H](CCC(=O)O)C(=O)N[C@@H](CC(=O)O)C(=O)N[C@@H](CC(=O)O)C(=O)N[C@@H](CO)C(=O)N[C@@H](CC(=O)O)C(=O)N[C@H](C(=O)N[C@@H](Cc1c[nH]c2ccccc12)C(=O)N[C@@H](Cc1c[nH]c2ccccc12)C(=O)N[C@@H](Cc1ccc(O)cc1)C(=O)NCC(=O)N(C)CC(=O)N[C@@H](C)C(=O)N[C@@H](CC(=O)O)C(=O)N[C@H](C(=O)N[C@@H](CC(=O)O)C(N)=O)[C@@H](C)O)C(C)C
Ki: 164 nM

Binder: Ac-ETEFIAWGGADTD-NH2 [hybrid peptide Y]
Ki: 345 nM

B4: …(N-Me-G)TGDED (peptide)
peptide: Ac-EDDSDVWWYG[Sar]TGDED-NH2
SMILES: CC(=O)N[C@@H](CCC(=O)O)C(=O)N[C@@H](CC(=O)O)C(=O)N[C@@H](CC(=O)O)C(=O)N[C@@H](CO)C(=O)N[C@@H](CC(=O)O)C(=O)N[C@H](C(=O)N[C@@H](Cc1c[nH]c2ccccc12)C(=O)N[C@@H](Cc1c[nH]c2ccccc12)C(=O)N[C@@H](Cc1ccc(O)cc1)C(=O)NCC(=O)N(C)CC(=O)N[C@H](C(=O)NCC(=O)N[C@@H](CC(=O)O)C(=O)N[C@@H](CCC(=O)O)C(=O)N[C@@H](CC(=O)O)C(N)=O)[C@@H](C)O)C(C)C
Ki: 138 nM

Binder: Ac-ETEFIAWGPTVSRED-NH2
Ki: 148 nM

Binder: Ac-ETEFIAWYGPTGDED-NH2
Ki: 195 nM

Binder: Ac-ETEFIAWYGADTD-NH2 [peptide 37]
Ki: 95 nM

Binder: Ac-DAIVWGPTVSRED-NH2 [… (SEQ ID NO: 341)]
Ki: 715 nM

Binder: Ac-PDAIVWGPTVSRED-NH2
Ki: 673 nM

Binder: Ac-PWAIDWGPTVSRED-NH2
Ki: 1300 nM

B6: …(N-Me-G)TGDED (peptide)
peptide: Ac-EDDSDVWWY[Sar]TGDED-NH2
SMILES: CC(=O)N[C@@H](CCC(=O)O)C(=O)N[C@@H](CC(=O)O)C(=O)N[C@@H](CC(=O)O)C(=O)N[C@@H](CO)C(=O)N[C@@H](CC(=O)O)C(=O)N[C@H](C(=O)N[C@@H](Cc1c[nH]c2ccccc12)C(=O)N[C@@H](Cc1c[nH]c2ccccc12)C(=O)N[C@@H](Cc1ccc(O)cc1)C(=O)N(C)CC(=O)N[C@H](C(=O)NCC(=O)N[C@@H](CC(=O)O)C(=O)N[C@@H](CCC(=O)O)C(=O)N[C@@H](CC(=O)O)C(N)=O)[C@@H](C)O)C(C)C
Ki: 142 nM

Binder: Ac-DWAIVWGPTVSRED-NH2
Ki: 338 nM

Binder: Ac-PWYIVWGPTVSRED-NH2
Ki: 336 nM

Binder: Ac-EDDDWIDWYDSDDD-NH2 [peptide 16]
Ki: 3.2 nM

Binder: Ac-EDDYIDWYDSDDD-NH2 [peptide 18]
Ki: 4.6 nM

Binder: Ac-EDDDWIDWGPTSDDD-NH2 [peptide 17]
Ki: 4 nM

Binder: Ac-EDDDWIDWGPTSDDDRRRRRRRR-NH2 [17-R8]
Ki: 123 nM

Binder: Ac-RRRRRRRREDDDWIDWGPTSDDD-NH2 [R8-17]
Ki: 58.1 nM

Further binders by falling Ki, results first:

Ki: 1500 nM
Binder: Ac-PHAIVWGPTVSRED-NH2

Ki: 792 nM
Binder: Ac-PFAIVWGPTVSRED-NH2

Ki: 773 nM
Binder: Ac-AIVWGPTVSRED-NH2 (also: asterisk not explained)

Ki: 683 nM
Binder: Ac-AIVWGPTVSRED-NH2

Ki: 461 nM
Binder: Ac-PWFIVWGPTVSRED-NH2

Ki: 412 nM
Binder: Ac-VWAIVWGPTVSRED-NH2

Ki: 383 nM
Binder: Ac-PWAIVWGPTSSRED-NH2

Ki: 327 nM
Binder: Ac-PWAIVWGPTVSDED-NH2

Ki: 314 nM
Binder: Ac-RRRRRRRREAAAKEDDDWIDWYDSDDD-NH2 [R8-RL-16]

Ki: 302 nM
Binder: Ac-PWVIVWGPTVSRED-NH2

Ki: 222 nM
Binder: Ac-PWAIVWGPTGDED-NH2

Ki: 201 nM
B1: …(N-Me-G)ADTD (peptide)
peptide: Ac-EDDSDVWWY[Sar]ADTD-NH2
SMILES: CC(=O)N[C@@H](CCC(=O)O)C(=O)N[C@@H](CC(=O)O)C(=O)N[C@@H](CC(=O)O)C(=O)N[C@@H](CO)C(=O)N[C@@H](CC(=O)O)C(=O)N[C@H](C(=O)N[C@@H](Cc1c[nH]c2ccccc12)C(=O)N[C@@H](Cc1c[nH]c2ccccc12)C(=O)N[C@@H](Cc1ccc(O)cc1)C(=O)N(C)CC(=O)N[C@@H](C)C(=O)N[C@@H](CC(=O)O)C(=O)N[C@H](C(=O)N[C@@H](CC(=O)O)C(N)=O)[C@@H](C)O)C(C)C

Ki: 192 nM
Binder: Ac-PWFIVWGPTVSDED-NH2

Ki: 190 nM
Binder: Ac-ETEFIAWYPADTD-NH2

Ki: 182 nM
Binder: Ac-ETEFIAWYGPADTD-NH2

Ki: 65.3 nM
Binder: Ac-EDDDWIDWYDSDDDRRRRRRRR-NH2 [16-R8]

Ki: 62 nM
Binder: Ac-EDDSDVWWGPTGDED-NH2 [hybrid peptide X]

Ki: 54 nM
Binder: Ac-ETEFIAWGPTGDEW-NH2

Ki: 32 nM
B5: peptide 38 (peptide)
peptide: Ac-ETEFIAWG[Sar]TGDED-NH2
SMILES: CC[C@H](C)[C@H](NC(=O)[C@H](Cc1ccccc1)NC(=O)[C@H](CCC(=O)O)NC(=O)[C@@H](NC(=O)[C@H](CCC(=O)O)NC(C)=O)[C@@H](C)O)C(=O)N[C@@H](C)C(=O)N[C@@H](Cc1c[nH]c2ccccc12)C(=O)NCC(=O)N(C)CC(=O)N[C@H](C(=O)NCC(=O)N[C@@H](CC(=O)O)C(=O)N[C@@H](CCC(=O)O)C(=O)N[C@@H](CC(=O)O)C(N)=O)[C@@H](C)O

Ki: 18 nM
Binder: Ac-EDDSWIWWYGADTD-NH2 [peptide 28]

Ki: 16 nM
Binder: Ac-EDDSWIWWGPTGDED-NH2 [peptide 27]

Ki: 11 nM
Binder: Ac-EDDSWIDWYGADTD-NH2 [peptide 30]

Ki: 5.6 nM
Binder: Ac-EDDSWIDWGPTGDED-NH2 [peptide 29]

Ki: 3.8 nM
Binder: Ac-EDDYIDWGPTSDDD-NH2 [peptide 19]
